The text below walks through data of PMC8801479, “The anti-Müllerian hormone prodomain is displaced from the hormone/prodomain complex upon bivalent binding to the hormone receptor” (The Journal of Biological Chemistry, 2021).

In general, Kd refers to the free concentration of one partner at which half of the binding sites on the other are occupied at equilibrium, for simple one-to-one binding.

In test [1] the target is T1, AMHR2-Fc/Fc, heterodimer of one AMHR2-Fc chain (extracellular domain of human AMHR2 fused to human IgG1 Fc) … (human, UniProt Q16671 18-149; P01857 104-330 = IgG part).
T1 construct: extracellular domain of human anti-Müllerian hormone receptor type-2 (AMHR2); Fc portion of human IgG1 (Ig gamma-1 chain constant region), the Fc-only chain; Functionally monovalent for AMHR2; also called soluble receptor; soluble AMHR2; source: human embryonic kidney 293E cells, purified from conditioned medium (Protein A Sepharose, size-exclusion chromatography); copies: 1 + 1
Briefly: ELISA; AMHR2-Fc/Fc (0.75 ug/ml) captured on goat antihuman Fc Ab coated on the plate; c-AMH or GF serially diluted, 2 to 4 h; bound AMH detected with biotinylated mAb-C1 (GF) or mAb-N1 (prodomain) and SA-HRP; data fit to the quadratic equation for a reversible association reaction. The conditions noted are these: both partners purified. On the technique in general: In an ELISA, binding on a coated surface is turned into a signal by an enzyme label.

For test [2], the target named is T2, BMP-7 prodomain biotinylated through amines (human, UniProt P18075 30-292, biotin through amines (EZ-Link NHS-PEG4-Biotin)).
T2 construct: prodomain of human bone morphogenetic protein 7 (BMP-7); 90% pure, with about 10% unprocessed BMP-7; also called biotinylated prodomain; source: CHO cells; soluble BMP-7 biotinylated, prodomain eluted from Zn-chelating Sepharose with 50 mM imidazole
Briefly: ELISA; BMP-7 complexes with biotinylated prodomain or biotinylated GF captured on anti-BMP-7 GF mAb; bound prodomain or GF detected with SA-HRP (biotinylated prodomain preparation also added as preformed complex with SA-HRP); 0.1% Tween-20 in all incubations; Kd from modeling of the concentration dependence. The settings on record: both partners purified.

T2 sequence (P18075 30-292): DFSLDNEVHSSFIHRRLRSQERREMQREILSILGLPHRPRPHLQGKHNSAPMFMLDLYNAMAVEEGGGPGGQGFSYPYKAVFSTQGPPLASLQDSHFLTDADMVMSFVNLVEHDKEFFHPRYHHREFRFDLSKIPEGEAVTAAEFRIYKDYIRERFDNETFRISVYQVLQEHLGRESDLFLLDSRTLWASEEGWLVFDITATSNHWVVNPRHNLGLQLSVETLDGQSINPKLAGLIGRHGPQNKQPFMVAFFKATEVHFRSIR

B1: anti-Müllerian hormone growth factor (AMH GF), the mature C-terminal domain (ligand, human, UniProt P03971 452-560, looked up)
chain: SAGATAADGPCALRELSVDLRAERSVLIPETYQANNCQGVCGWPQSDRNPRYGNHVVLLLKMQVRGAALARPPCCVPTAYAGKLLISLSEERISAHHVPNMVATECGCR
notes: C-terminal growth factor (GF) domain of human AMH, the mature product of cleavage at the monobasic site (R451); Disulfide-linked homodimer; also called mature GF; C-terminal GF; source: in the prodomain/GF rows it is the GF part of c-AMH (CHO cells, plasmin cleaved)
For the molecule B1, the Kd in test [1] stood at 0.03 nM.

B2: mature BMP-7 growth factor (unmodified mature domain) (ligand, human, UniProt P18075 293-431, looked up)
chain: STGSKQRSQNRSKTPKNQEALRMANVAENSSSDQRQACKKHELYVSFRDLGWQDWIIAPEGYAAYYCEGECAFPLNSYMNATNHAIVQTLVHFINPETVPKPCCAPTQLNAISVLYFDDSSNVILKKYRNMVVRACGCH
notes: mature growth factor (GF) domain of human BMP-7; also called BMP-7 GF; source: CHO cells; mature BMP-7 eluted from Zn-chelating Sepharose with 6 M urea
As for B2, the equilibrium dissociation constant (Kd) in test [2] was 0.1 to 0.2 nM.
